According to the supplement of paper PMC7125110:
± gives the standard error. For some assays here: Variants at the floor of the assay were thinned out.

B1: glmS ribozyme (parent)
chain: AUAAAAGCGCCAGAACUACAGAAAUGUAGUUGACGAGGAGGAGGUUUAUCGAAUUUUCGGCGGAUGCCUCCAAA

Legend:
Conditions in all cases: with glucosamine-6-phosphate
[1] = variants of: B1; experiment: kcat; higher = faster cleavage; RNA array
Method in brief: (§1)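 Over ~14 h at 37 °C, tiles were imaged as glucosamine-6-phosphate (40 μM to 10 mM) in HEPES/KCl/Mg(OAc)2 buffer flowed across sequenced MiSeq chips. The chips carried barcoded ribozyme variants transcribed in situ by E. coli RNA polymerase and tracked with a hybridised Cy3 probe. After normalisation to baseline and to non-cleaving reference variants, one- or two-exponential decay fits of per-tile medians gave kobs. kcat and KM followed from weighted Michaelis–Menten fits across concentrations.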

[2] = variants of: B1; experiment: self-cleavage kobs at 40 uM GlcN6P; higher = faster cleavage; RNA array
Method in brief: as §1

[3] = variants of: B1; experiment: self-cleavage kobs at 640 uM GlcN6P; higher = faster cleavage; RNA array
Method in brief: as §1

[4] = variants of: B1; experiment: self-cleavage kobs at 2500 uM GlcN6P; higher = faster cleavage; RNA array
Method in brief: as §1

[5] = variants of: B1; experiment: self-cleavage kobs at 10000 uM GlcN6P; higher = faster cleavage; RNA array
Method in brief: as §1

[6] = variants of: B1; experiment: KM; higher = weaker cofactor use; RNA array
Method in brief: as §1

[7] = variants of: B1; experiment: self-cleavage kobs at 160 uM GlcN6P; higher = faster cleavage; RNA array
Method in brief: as §1

| Variant | kcat [1] [s⁻¹] | self-cleavage kobs at 40 uM GlcN6P [2] [s⁻¹] | self-cleavage kobs at 640 uM GlcN6P [3] [s⁻¹] | self-cleavage kobs at 2500 uM GlcN6P [4] [s⁻¹] | self-cleavage kobs at 10000 uM GlcN6P [5] [s⁻¹] | KM [6] [µM] | self-cleavage kobs at 160 uM GlcN6P [7] [s⁻¹] |
| --- | --- | --- | --- | --- | --- | --- | --- |
| C50G G59U C68G | 8.8e-05 ± 8.6e-06 | 6.82e-05 ± 2.8e-05 | 0.000101 ± 3e-05 | 0.000102 ± 2.2e-05 | 7.83e-05 ± 1.5e-05 | – | – |
| C16U C71A | 0.00166 ± 0.00032 | 0.000186 ± 2.6e-05 | 0.00168 ± 0.0003 | 0.00113 ± 0.00027 | 0.00173 ± 0.00034 | 298 ± 95 | 0.000667 ± 0.00016 |
| A53U U56C C71U | 0.00121 ± 0.00019 | – | – | 0.000406 ± 9.1e-05 | 0.000903 ± 0.0002 | 4240 ± 1000 | 4.8e-05 ± 1.3e-05 |
| G41U U55C | 0.000532 ± 8.1e-05 | – | 6.02e-05 ± 7.7e-06 | 0.000181 ± 2e-05 | 0.000359 ± 5.4e-05 | 4870 ± 1100 | 3.13e-05 ± 1.4e-05 |
| A15C U30C | 0.000215 ± 7.8e-05 | – | 8.27e-05 ± 2.3e-05 | 8.21e-05 ± 1.5e-05 | 0.000177 ± 2.6e-05 | – | – |
| G40A G41U | 7.26e-05 ± 2.3e-06 | – | 2.54e-05 ± 8.5e-06 | 5.29e-05 ± 1.9e-05 | 6.43e-05 ± 1.3e-05 | 1160 ± 110 | – |
| G63C U65G | < 1e-05 | < 1e-05 | – | – | < 1e-05 | – | < 1e-05 |
| A42C G66A | 0.000322 ± 2.8e-05 | – | 0.000125 ± 1.5e-05 | 0.000208 ± 2.9e-05 | 0.000305 ± 4.2e-05 | 1090 ± 210 | – |
| U46A U56A | 0.001 ± 0.00013 | – | 0.000307 ± 7e-05 | 0.000533 ± 0.00015 | 0.000853 ± 0.00014 | 1800 ± 490 | – |
| C16G C67A | 0.00104 ± 0.00042 | 3.35e-05 ± 7e-06 | 0.000169 ± 6.1e-05 | 0.000618 ± 0.00021 | 0.000956 ± 0.00019 | – | – |
| G41C U55A | 8.46e-05 ± 5e-06 | < 1e-05 | – | 5.87e-05 ± 2e-05 | 7.36e-05 ± 2e-05 | 1280 ± 280 | – |
| G37C C70U | 2.69e-05 ± 6.4e-06 | – | 2.26e-05 ± 9.4e-06 | 1.7e-05 ± 5.8e-06 | 3.18e-05 ± 7.2e-06 | – | – |
| A52C U54A | 1.15e-05 ± 1.5e-06 | – | – | – | – | 368 ± 130 | – |
| A48U U57G | < 1e-05 | < 1e-05 | – | – | < 1e-05 | – | < 1e-05 |
| G13C G32C | 0.000728 ± 0.00016 | – | 0.000109 ± 2.2e-05 | 0.000408 ± 7e-05 | 0.000534 ± 7.8e-05 | 3050 ± 1200 | 4.58e-05 ± 1.6e-05 |
| G40C C71A | 0.00654 ± 0.0028 | 0.000225 ± 3.8e-05 | 0.00213 ± 0.00024 | – | 0.00527 ± 0.00096 | – | 0.000451 ± 6.2e-05 |
| G40A G43C | < 1e-05 | – | < 1e-05 | – | – | – | – |
| C67A C71G | 7.2e-05 ± 7e-06 | – | 6.96e-05 ± 6.6e-06 | 8.16e-05 ± 8.2e-06 | 6e-05 ± 6.9e-06 | – | 5.48e-05 ± 8.6e-06 |
| A12G C68G | 3.14e-05 ± 6.3e-06 | – | – | 4.35e-05 ± 1.8e-05 | – | – | – |

| Variant | kcat [1] [s⁻¹] | self-cleavage kobs at 40 uM GlcN6P [2] [s⁻¹] | self-cleavage kobs at 640 uM GlcN6P [3] [s⁻¹] | self-cleavage kobs at 2500 uM GlcN6P [4] [s⁻¹] | self-cleavage kobs at 10000 uM GlcN6P [5] [s⁻¹] | KM [6] [µM] | self-cleavage kobs at 160 uM GlcN6P [7] [s⁻¹] |
| --- | --- | --- | --- | --- | --- | --- | --- |
| G41U C71G | 0.000121 ± 9e-06 | – | 2.64e-05 ± 1.1e-05 | 8.28e-05 ± 1.7e-05 | 0.000102 ± 9.5e-06 | 1780 ± 490 | – |
| C11U A53U | 0.00137 ± 0.0004 | – | – | 0.000587 ± 0.00017 | 0.00125 ± 0.00023 | – | 0.000141 ± 3.8e-05 |
| U31G U65C | 0.000173 ± 5.1e-05 | – | 4.57e-05 ± 1.5e-05 | 6.33e-05 ± 1.4e-05 | 0.000136 ± 2e-05 | – | – |
| U54C A64U | 7.19e-05 ± 1e-05 | – | – | 5.96e-05 ± 1.3e-05 | 6.16e-05 ± 1.3e-05 | – | – |
| G38A U56A | < 1e-05 | – | < 1e-05 | – | < 1e-05 | 52.5 ± 11 | – |
| A53U C70A | 0.000125 ± 2.5e-05 | 4.52e-05 ± 7.1e-06 | 0.000117 ± 1.3e-05 | – | – | – | 7.24e-05 ± 1.2e-05 |
| A15U G59A | 1.53e-05 ± 4.8e-06 | < 1e-05 | – | – | – | – | – |
| G43C C68U | 0.000722 ± 5.4e-05 | – | 0.000235 ± 2.8e-05 | 0.000572 ± 0.00012 | 0.000615 ± 6.7e-05 | 1370 ± 190 | 7.12e-05 ± 1.6e-05 |
| C16G C71A | 0.000641 ± 0.00015 | – | 0.000111 ± 1.9e-05 | 0.000462 ± 0.00011 | 0.000465 ± 8.7e-05 | 2900 ± 1000 | – |
| U45A C67A C68G | 1.46e-05 ± 7.2e-06 | – | – | – | – | – | – |
| C34U G63C | < 1e-05 | – | < 1e-05 | < 1e-05 | – | – | – |
| C61A C70G | 1.68e-05 ± 3.8e-06 | – | – | – | – | – | – |
| G29A A48U | 0.000327 ± 8.3e-05 | – | – | – | 2.73e-05 ± 1.1e-05 | – | – |
| C58U C71U | 8.62e-05 ± 5e-06 | – | – | 3.66e-05 ± 7.1e-06 | 6.56e-05 ± 6e-06 | 3200 ± 560 | – |
| A39U C71U | 0.0168 ± 0.0026 | 0.000702 ± 7.4e-05 | 0.00657 ± 0.00085 | 0.0105 ± 0.0014 | 0.0183 ± 0.0026 | 1030 ± 230 | 0.00196 ± 0.00029 |
| G40C G63C | < 1e-05 | – | – | < 1e-05 | – | – | < 1e-05 |
| U31A A52G C68A | 1.75e-05 ± 4.6e-06 | – | – | – | – | – | – |
| C50G U56C | 1.76e-05 ± 2.6e-06 | – | – | – | – | – | – |
